For one substance, IC50 results are on record in patent US9713649.

This assay deals with Prostate specific membrane antigen (PSMA) (UniProt Q04609). The assay can be described thus: competitive binding on LNCaP or PC3-PIP cells; displacement of 12 nM N-[N-[(S)-1,3-dicarboxypropyl]carbamoyl]-S-[3H]-methyl-L-cysteine, scintillation counting.
Prostate specific membrane antigen (PSMA), sequence (Q04609 whole entry): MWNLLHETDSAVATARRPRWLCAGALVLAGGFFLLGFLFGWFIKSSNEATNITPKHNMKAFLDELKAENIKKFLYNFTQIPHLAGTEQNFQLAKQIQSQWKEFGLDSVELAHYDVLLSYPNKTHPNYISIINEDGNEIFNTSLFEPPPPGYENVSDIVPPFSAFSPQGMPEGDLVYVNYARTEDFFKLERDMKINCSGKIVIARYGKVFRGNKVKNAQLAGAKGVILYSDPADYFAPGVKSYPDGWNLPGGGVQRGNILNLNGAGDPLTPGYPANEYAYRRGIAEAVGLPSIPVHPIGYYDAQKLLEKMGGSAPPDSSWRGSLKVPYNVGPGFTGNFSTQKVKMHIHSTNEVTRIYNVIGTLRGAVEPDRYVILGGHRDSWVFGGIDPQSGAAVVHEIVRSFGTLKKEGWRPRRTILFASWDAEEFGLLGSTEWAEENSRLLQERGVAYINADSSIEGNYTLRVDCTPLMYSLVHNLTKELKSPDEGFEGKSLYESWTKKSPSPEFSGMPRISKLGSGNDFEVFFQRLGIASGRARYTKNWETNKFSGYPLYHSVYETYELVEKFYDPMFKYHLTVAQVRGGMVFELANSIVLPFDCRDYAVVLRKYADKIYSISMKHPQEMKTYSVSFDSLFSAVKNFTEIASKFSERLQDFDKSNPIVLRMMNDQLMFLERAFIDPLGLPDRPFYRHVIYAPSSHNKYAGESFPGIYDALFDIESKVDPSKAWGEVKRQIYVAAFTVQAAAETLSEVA

With “ZJ-MCC-Ahx-dEdEdEG (Compound 1) (peptide)”, the IC50 was 2.2 nM. This counts as single-digit nanomolar.

The term IC50 denotes the concentration that gives 50% inhibition. High values mean weaker potency, low ones greater potency.
